Measured values: article PMC9616523 (2022)

Assays:
[1] = biological target: Avaren‐Fc expressed in wild‐type N. benthamiana (AvFc^WT) ( | human); assay: SPR
[2] = biological target: Avaren‐Fc expressed in glycoengineered ΔXylT/ΔFucT N. benthamiana (AvFc^ΔXF) ( | human); assay: SPR

Row | Binder | Kd [1] [nM] | Kd [2] [nM]
1 | mouse FcγRIV (receptor) GLQKAVVNLDPKWVRVLEEDSVTLRCQGTFSPEDNSIKWFHNESLIPHQDANYVIQSARVKDSGMYRCQTALSTISDPVQLEVHMGWLLLQTTKWLFQEGDPIHLRCHSWQNRPVRKVTYLQNGKGKKYFHENSELLIPKATHNDSGSYFCRGLIGHNNKSSASFRISLGDPGSPSMFPPWHQ | 2530 | 457
2 | human FcγRI (receptor) QVDTTKAVITLQPPWVSVFQEETVTLHCEVLHLPGSSSTQWFLNGTATQTSTPSYRITSASVNDSGEYRCQRGLSGRSDPIQLEIHRGWLLLQVSSRVFTEGEPLALRCHAWKDKLVYNVLYYRNGKAFKFFHWNSNLTILKTNISHNGTYHCSGMGKHRYTSAGISVTVKELFPAPVLNASVTSPLLEGNLVTLSCETKLLLQRPGLQLYFSFYMGSKTLRGRNTSSEYQILTARREDSGLYWCEAATEDGNVLKRSPELELQVLGLQLPTPVWFH | 7.78 | 4.04
